Here are results for one molecule from patent publication US20200362024A1, “BIOLOGICAL MATERIALS AND USES THEREOF” (IMPERIAL INNOVATIONS LIMITED, priority 2009, published 2020).

The subject of one series is tenascin-C. Kind of series: siRNA mediated knockdown of tenascin-C expression in RA synovial fibroblasts. Type of series: cell-based, human. The note with it: 10 nM siRNA, compared to luciferase siRNA control. Here is the method:
(§1) Synovial fibroblasts (used only at either passage number 2 or 3) were seeded at a concentration of 5×10^4 cells in a 3.5-cm dish. siRNA was transfected at a final concentration of 10 nM using Lipofectamine 2000 (Invitrogen) for 4 h in serum-free OptiMEM I. Two different siRNAs against human tenascin-C were used (s7069 and s229491) (Applied Biosystems).
siRNA sequences of s7069 are: (sense 5′ […]tt 3′, antisense 5′ […]tc 3′) and of s229491 are (5′ […]tt 3′, antisense 5′ […]gg 3′). siRNA against luciferase (Dharmacon) was transfected as a non-targeting control.
Four hours after transfection, medium was changed with pre-equilibrated Dulbecco's modified Eagle's medium containing 10% FBS (v/v) and cells were incubated for a further 48 h and 72 h. Cells were then stimulated with 10 ng/ml LPS for 24 h at 37° C. Tenascin-C mRNA and protein levels were quantitated by PCR and western blotting respectively. […]
Gene expression was analysed by delta-delta ct methods based on quantitative real-time PCR with TaqMan primer set human tenascin-C(Hs01115663-ml) and human ribosomal protein endogenous control (RPLPO) (4310879E) (Applied Biosystems) in a Corbett Rotor-gene 6000 machine (Corbett Research Ltd). Tenascin-C protein was detected in cell supernatants and cell lysates by SDS PAGE and western blotting using antibody MAB1908 (Millipore).

A further series concerns RA synovial fibroblasts. Kind of series: Cytokine synthesis in RA synovial fibroblasts transfected with tenascin-C siRNA. Type of series: cell-based, human. The following applies: compared to control cells (IL6). Here is the method: as §1
Four hours after transfection, medium was changed with pre-equilibrated Dulbecco's modified Eagle's medium containing 10% FBS (v/v) and cells were incubated for a further 48 h and 72 h. Cells were then stimulated with 10 ng/ml LPS for 24 h at 37° C. Tenascin-C mRNA and protein levels were quantitated by PCR and western blotting respectively. Total RNA was extracted from cells using a QiaAmp RNA Blood mini kit (Qiagen, Germany). cDNA was synthesised from equivalent amounts of total RNA using SuperScript® III Reverse Transcriptase (invitrogen) and 18-mer oligo dTs (Eurofins MWG Operon).
Supernatants were examined for the presence of the cytokines TNF-α, IL-6, and IL-8 by enzyme-linked immunosorbent assay (ELISA) according to the manufacturer's instructions (R&D systems). Absorbance was read on a spectrophotometric ELISA plate reader (Labsystems Multiscan Biochromic, Vantaa, Finland) and analyzed using the Ascent software program (Thermo Labsystems, Altrincham, UK).

B1: tenascin-C siRNA: tenascin-C targeted siRNAs; combination of oligos 1+2 used for cytokine synthesis (nucleic acid)
sense 1: CGCGAGAACUUCUACCAAATT
antisense 1: UUUGGUAGAAGUUCUCGCGTC
sense 2: GGAAUAUGAAUAAAGAAGATT
antisense 2: UCUUCUUUAUUCAUAUUCCGG
modifications: chemistry not given here
notes: tenascin-C targeted siRNAs; combination of oligos 1+2 used for cytokine synthesis
In the case of B1, in the series with tenascin-C, the “knockdown of tenascin-C expression, maximal efficiency” value is recorded as 94-96%. For the same molecule, the “inhibition of LPS induced cytokine production” value with RA synovial fibroblasts (10 ng/ml LPS 24 h) is reported as 44%. The “inhibition of basal level of cytokine synthesis” value in the series on RA synovial fibroblasts is on record as 38%.
